Common to all, as to settings: protein: synthetic; tags: synthetic 39-mer peptide made by solid phase synthesis, UCSF Biotechnology Resource Core; label: 5'-32P; hairpin with bulge
In series [1] the target is T1, Tat39 (Tat3B; HIV Tat residues 48-86) (HIV-1, UniProt P04608 P04608:48-86).
T1 chain: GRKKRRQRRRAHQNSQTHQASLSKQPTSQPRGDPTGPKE
Nature of the series: EMSA; 50 pM oligo; 1:1 Kd; 2-3:1 Kd 8000-20000 nM; Krel 10. In general terms: Mobility shift assays separate free from complexed probe on a gel.

Series [2] deals with T1, Tat39 (Tat3B; HIV Tat residues 48-86). As to the kind of experiment: EMSA; 5 pM oligo; 1:1 Kd; Krel 4.
For series [3] the target is unchanged. Nature of the series: EMSA; 1:1 Kd; 2-3:1 Kd 200 nM; 10 mM Tris pH 7.5, 70 mM NaCl, 4 C.
The target is the same in series [4]. Nature of the series: EMSA; 1:1 Kd; Krel 1.
For series [5] the target is unchanged. As to the kind of experiment: EMSA; 1:1 Kd; 2-3:1 Kd 30 nM; Krel 4.

A word on the Kd: it is the constant that tells how readily two partners part at equilibrium. Read a high Kd as lower affinity.

In the case of GCCAGAUCUGAGCCUGGGAGCUCUCUGGC (XNA, 2'-OMe, PS) [2'-OMe, P=S delta-TAR #2195 29-mer (16-45(-A17))], the Kd in series [1] was 4 nM; in series [2] it was under 10 nM.

B1: TAR 59-mer (1-59) (ssRNA)
RNA: GGGUCUCUCUGGUUAGACCAGAUCUGAGCCUGGGAGCUCUCUGGCUAACUAGGGAACCC
B1: the Kd in series [3] is 40 nM.

B2: 5-BrU TAR 59-mer (1-59) (ssRNA)
RNA: GGGUCUCUCUGGUUAGACCAGAUCUGAGCCUGGGAGCUCUCUGGCUAACUAGGGAACCC
modifications: 5-bromouridine in place of U
As for B2, the Kd in series [4] came to 40 nM.

B3: A:P=S TAR 59-mer (1-59) (ssRNA)
RNA: GGGUCUCUCUGGUUAGACCAGAUCUGAGCCUGGGAGCUCUCUGGCUAACUAGGGAACCC
modifications: PS linkages at A residues
In turn, B3 displayed a Kd in series [5] of under 10 nM.

For the origin of these results see patent US6368863, “Reagents and methods for modulating gene expression through RNA mimicry” (ISIS Pharmaceuticals Inc.).
